Measurements taken from the supplement of paper PMC9170038.

tested on: K4 kissing-loop RNA reporter; assay: apparent KD of K4 kissing-loop reporter; higher = weaker reporter binding; conditions: Eterna round: R107; input ligand: arginine 13.2 mM
Method: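 RNA-MaP round R107: designed RNA switches with theophylline, tryptophan, arginine or FMN aptamers are transcribed on-chip within common flanks. They are titrated with a labelled K4 kissing-loop RNA reporter in RNA-MaP buffer (100 mM Tris pH 7.5, 80 mM KCl, 4 mM MgCl2), without ligand or with the indicated ligand. Median apparent KD per design.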
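Note: bound reporter read as fluorescence of individual clusters on recovered sequencing chips by microscopy, with normalized cluster intensities fitted with a binding model.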

Going from “CUCACGCUCACAGAUACCAGUGGUGAUCCGGAUUGUAGUGAUGUUAAUUCCGCCAUCAUACACCCUUGGCAGCUGGCGUCACCUU [theeternabot_sameState_KL_Theo_B_31]” to “GGUGUGCCAAGUGAUGUUUGGCGUUCUCACCGAGGACCGGUACGGCCGCCACUCGUUAACUGACCAAGUAUCUUUACCUCGGAGA [theeternabot_sameState_KL_Trp_A_8]”, the “apparent KD of K4 kissing-loop reporter” value falls from 0.417 µM to 0.141 µM (3-fold).

Compared with “CUGUACAUCUCGGCCGCCACUGACCUAAGUGAUGUUAGGAAUGAAACCUAGUGAUGUUAGCAAACCAGGACCGGGAGGUGUGCAG [KL-SSTryp-B4 #Double Kiss]”, “GUCUCGAGUGAUGUUCGGGUCGUUUGGGAAGGAGCGCCCGGAAGGGCAGGUAGGUCGCCCGGACCGCGCGGGCAACCGCGCGGCC [#2 Same State - Arginine A Attempt #12 (HarryS)]” is 4.9-fold higher in “apparent KD of K4 kissing-loop reporter” value: 0.0334 µM for the first, 0.162 µM for the second.

Going from “UGACUGGAUGGAAGGAGCGCUAAACUCCUAGUGAUGUUAGGGACACGAGACAAAGUCUCGAAGCAGGUAGGUCGCCAUCUAGUCU [FiskerMod 13 - Jieux - Same State - Arginine B]” to “ACGGAUACGCGAGAUACCAGAGGCAUUCGCCAGCGACCAUAAUGUCCCGAGAGUGAUGUUCUCCCUUGGCAGCUCAUGGUUAAUU [theeternabot_exclusion_KL_Theo_B_2]”, the “apparent KD of K4 kissing-loop reporter” value rises from 0.156 µM to 0.4 µM (2.6-fold).

same assay, conditions: Eterna round: R107; input ligand: none

Going from “GCGUCACGUCGGGAUACCAGAGAAAUGGCAUUAGCCAAUGACGAGUGAUGUUCGUAGGCGCUCCCUUGGCAGCCCACCGGGAGGA [theeternabot_sameState_KL_Theo_B_21]” to “GCCGUAGAUUGAAGGAGCGGUGAAUGCAGGUGAGUCCUUUAGAUGUUUAGUGAUGUUAAACACCAGGUAGGUCGCAAUCUACGGC”, the “apparent KD of K4 kissing-loop reporter” value falls from 0.311 µM to 0.203 µM (1.5-fold).

Going from “GGUAGCUAGGCAGGAUAUAGCUAGUGGAGUGAUGUUCCACCAUACACGAGUGAUGUUCGUAACCUGCUAGAAGGGCCUAGCUACC” to “GGCGGCCGCGCGCAAGCGCGGCCGGCCGAUACCAGCGCGACGGCGCGCCCUUGGCAGCGGCGCCGAGUGAUGUUCGGCCUGCCGG [#2 Same State - Theophylline A Attempt #16 (HarryS)]”, the “apparent KD of K4 kissing-loop reporter” value rises from 0.144 µM to 0.585 µM (4.1-fold).

First: UUUUUUAGUUGAGUUAUACAUAGCGGACUAUAGGAUAUCUAGAAAUAGAGAAGGAUAAGAGUGAUGUUCUUAUUCAACUAUAGUG
Second: GGACAACUAUGUCCCAUACAAACAAGAGAUACCAGCCAUCAUAGAGGCCCUUGGCAGCUCAUAUAAUCCAGUGAUGUUGGAUUUC [Atgebeus]
The “apparent KD of K4 kissing-loop reporter” value of the first is 2-fold lower: 0.0909 µM for the first, 0.179 µM for the second.

Going from “AAUGUGCAGGGAAGGAGCGUAGUCCAGUGAUGUUGGAGUUAAAUACCAGUGAUGUUGGUUAUACAGGUAGGUCGCCCUAAAGCGC [Exclusion Arginine B Gf 5]” to “GAACGAGUGAUGUUCGUUAUUAUGCAUUCCGAGGAUAUGGGAUUAGCCAGAAGGCGGAAUCAAUCUUCGAGUGAUGUUCGAAGAU [Same State FMN A GF 11]”, the “apparent KD of K4 kissing-loop reporter” value rises from 0.0813 µM to 0.142 µM (1.7-fold).

Compared with “ACGCGCGAGACGGCCGCCACUAUACGUCGAGUGAUGUUCGAGCCAAGAUGUCGUUACGUUUAUAAUAGGACCGGGUCAAUGGAUU [theeternabot_sameState_KL_Trp_B_19]”, “CGUGAGUGCCGACGGUCAUCGGUCCAUGCACGAGGACCGGUACGGCCGCCACUCGAGCGUGGCAGUGAUGUUGCCAGCGCACUAA [Oninvexece]” is 5.8-fold lower in “apparent KD of K4 kissing-loop reporter” value: 0.583 µM for the first, 0.101 µM for the second.

Going from “CGGGAAUUAGGUAUCGUCGAAAGCAAGAACCGAGGACCGGUACGGCCGCCACUCGCACCAGUGAUGUUGGUACAUUUGGUAUCCG [theeternabot_sameState_KL_Trp_A_31]” to “UGAUACCAGACGGCCGCCACUAGGACCGGGAGUGAUGUUCCGAAAAUUAAAUGCUCGGCCGCCACUAGGACCGGGUCUGGUAUCU [TrypBX 28 #DoubleAptamer #SwitchBubble]”, the “apparent KD of K4 kissing-loop reporter” value rises from 0.134 µM to 0.308 µM (2.3-fold).

“AAUUUAUUAACUGAUACCAGACUUAAUAAAUUGUAAAUUACUAGUGAUGUUAGUGAAUUUGUCCCUUGGCAGCAGUAUUUAUUAA [JR_ExcTheophyB_Sub009]” and “AAAACUCGGUAGUGAUGUUAUUGAGUGAACAAGGAUAUCUAUGAUAAGAGAAGGUGUAAGUUAAGCGUAUUUCGGCCUGUACAAU [theeternabot_sameState_KL_FMN_A_34]” are within 1.5-fold of each other in “apparent KD of K4 kissing-loop reporter” value: 0.124 µM for the first, 0.114 µM for the second.

Compared with “AAAAUUAAGGCCGAAUUAACUUCUUGCAUACGAGGACCGGUACGGCCGCCACUCGAGUCAAGUGAUGUUUGACAAUCUAUUAUUA [JR_ExcTryptoA_Sub010]”, “UGUCAUUGGUCGGCCGCCACUAGAAGGUCAAAGACCAUAGAGUGAUGUUCUAAGACGAAAGUCACUAGGACCGGGACCGAUGACU [TrypBS 1 #SwitchBubble #K4Middle]” is 8.2-fold higher in “apparent KD of K4 kissing-loop reporter” value: 0.11 µM for the first, 0.899 µM for the second.

Compared with “AAGUGUGUGGCGGCCGCCACUAGAAUCCAGUGAUGUUGGAGUAAUCAAAUAAAUGAUAAUCAACAUAGGACCGGGCCAUAUAGAA [Same State - Tryptophan B (Freestyle 3)]”, “UGUACCGAGUCAGGAUAUGGCGUCGAAAGACGAAUUCUAGUGAUGUUAGGGAUCUGCGAAAGCAGUCCAGAAGGGACUUGGUACU [FmnBS 26 U36]” is 1.7-fold higher in “apparent KD of K4 kissing-loop reporter” value: 0.349 µM for the first, 0.607 µM for the second.

Compared with “UAACUUGCAGUGAUGUUGCAAGAACUGGAUACCAGCAUGGAAACAUGCCCUUGGCAGCCAGAAGGUAUCCUCUGCAAGAGAUACA [Design1]”, “GGAUAGGAAAGAGGAUAUGGGCUAGGCAAGAAUAACUUGUCUAGCAAAUCCAUGAGGAGUGAUGUUCCAGAAGGCUUUCCUAUCG [FmnBX 1 A9+U77]” is 1.9-fold lower in “apparent KD of K4 kissing-loop reporter” value: 0.311 µM for the first, 0.16 µM for the second.

“AAACAUUGGUCUGAUACCAGUUAGACCGAUAGGUCAAAACUGGAGUGAUGUUCCUAAAAUAACCCUUGGCAGCAGACCGAUGAAA [MAT - Same State Theophlline B - Mod of Eli - D4]” was tested, and the “apparent KD of K4 kissing-loop reporter” value was 0.596 µM.
